The target in assay [1] is T1, Grapevine fanleaf virus strain F13 (purified viral particles) (Grapevine fanleaf virus, strain F13) (UniProt P18474).
T1 sequence (looked up): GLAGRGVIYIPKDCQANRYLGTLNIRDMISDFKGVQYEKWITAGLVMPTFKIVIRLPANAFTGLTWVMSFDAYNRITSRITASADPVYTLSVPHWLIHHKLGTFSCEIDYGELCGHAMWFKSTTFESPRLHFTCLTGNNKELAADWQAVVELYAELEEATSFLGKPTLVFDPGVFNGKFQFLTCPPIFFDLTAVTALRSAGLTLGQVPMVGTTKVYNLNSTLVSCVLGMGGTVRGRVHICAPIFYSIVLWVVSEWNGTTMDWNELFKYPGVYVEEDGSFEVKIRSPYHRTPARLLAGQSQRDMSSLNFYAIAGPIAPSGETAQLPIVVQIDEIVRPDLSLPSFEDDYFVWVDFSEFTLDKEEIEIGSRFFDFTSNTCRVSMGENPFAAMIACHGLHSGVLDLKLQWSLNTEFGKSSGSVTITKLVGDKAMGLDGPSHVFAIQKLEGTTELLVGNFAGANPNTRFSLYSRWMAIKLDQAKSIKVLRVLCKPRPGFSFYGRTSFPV
As to the kind of experiment: dynamic light scattering: GFLV-F13 at 0.1 mg/ml with Nb23:EGFP at 0.9 mg/ml; virus alone 32 nm.

Assay [2] deals with T1, Grapevine fanleaf virus strain F13 (purified viral particles) (Grapevine fanleaf virus, strain F13). In words: dynamic light scattering: GFLV-F13 at 0.1 mg/ml with Nb23 at 0.1 mg/ml; virus alone 32 nm.

B1: Nb23:EGFP fusion protein (Nb23:EGFP:His6, expressed in E. coli) (protein, part only; not given: EGFP and cloning residues, not shown: large carriers)
chain, part: QVQLQESGGGSVQVGGSLRVACAASGDTFSGYLAAWFRQAPGKGREGVAAINSKRHTTSYADSVKGRFTISKDNADNIMYLEMNSLKPEDTAIYYCAAADAIGLAEYWSTPTLSAARYKYWGQGTQVTVSSGGGSGGGHHHHHH
For B1, the average hydrodynamic diameter of viral particles in the presence of the binder in assay [1] was 43.8 nm.

B2: Nb23 (His6-tagged, purified from E. coli) (VHH)
VHH: QVQLQESGGGSVQVGGSLRVACAASGDTFSGYLAAWFRQAPGKGREGVAAINSKRHTTSYADSVKGRFTISKDNADNIMYLEMNSLKPEDTAIYYCAAADAIGLAEYWSTPTLSAARYKYWGQGTQVTVSS
For B2, the average hydrodynamic diameter of viral particles in the presence of the binder in assay [2] came to 37.8 nm.
